According to patent US20250171536A1 (CSL INNOVATION, published 2025):
Blank lines part the entries; values can stand above or below the binder they belong to.

Experiments:
[1] = biological target: N-terminal domain of human CD117, soluble (HuCD117 1-308) (human, UniProt P10721 26-308); assay: SPR Biacore 4000, captured antibody, soluble CD117 analyte, 1:1 fit;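 also: antibodies captured on CM5 chips via goat anti-human IgG or IgA, CD117 analyte in two-fold series 0.8–200 nM, run at pH 7.3 and 37 °C, double-referenced sensorgrams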
Experimental: (§1) Biacore 4000 was used for all binding analyses. Experiments were performed at pH 7.3, 37° C. and under flow rate of 30 μL/min. Human anti-CD117 antibodies were surface captured using either polyclonal goat anti-human IgG or IgA antibodies directly immobilised onto the carboxymethyl dextran surface of CM5 sensorchips to approximately 13,000 RU using standard NHS/EDC chemistry at pH 5. The immobilised antibody surface was pre-conditioned with ten injections of human polyclonal IgG (Privigen 60s, 10 μg/mL) each followed by a regeneration cycle with 100 mM H3PO4.
(§2) A total of 18 anti-CD117 antibodies (2 μg/mL) were tested as captured ligands against four soluble mammalian CD117 receptor variants: the N-terminal domain of human CD117 (HuCD1₁₇₁₋₃₀₈), full length human CD117 (HuCD1₁₇₁₋₅₂₄), cyno CD117 (cynoCD117₁₋₅₂₀), and murine CD117 (MuCD117₁₋₅₂₇).
(§3) CD117 proteins were prepared in two-fold dilutions ranging from 0.8 to 200 nM. Anti-CD117 antibodies huAb249, huAb85, huCK6 and huhzSR1 were used as positive controls. BM4 was prepared in an IgG and IgA2 format and used as negative control. Binding affinities were calculated from sensorgrams double-referenced using reference surface and blank buffer injection data gathered within each experiment.

[2] = biological target: T1, Full length human CD117, soluble (HuCD117 1-524) (human, UniProt P10721 26-524); assay: as above
T1 construct: also called full-length protein
Experimental: as §1, §2, §3

[3] = biological target: T2, Cyno CD117, soluble (cynoCD117 1-520) (cynomolgus monkey, UniProt P10721 26-520 (human entry)); assay: as above
T2 construct: Residues as printed
T2 chain: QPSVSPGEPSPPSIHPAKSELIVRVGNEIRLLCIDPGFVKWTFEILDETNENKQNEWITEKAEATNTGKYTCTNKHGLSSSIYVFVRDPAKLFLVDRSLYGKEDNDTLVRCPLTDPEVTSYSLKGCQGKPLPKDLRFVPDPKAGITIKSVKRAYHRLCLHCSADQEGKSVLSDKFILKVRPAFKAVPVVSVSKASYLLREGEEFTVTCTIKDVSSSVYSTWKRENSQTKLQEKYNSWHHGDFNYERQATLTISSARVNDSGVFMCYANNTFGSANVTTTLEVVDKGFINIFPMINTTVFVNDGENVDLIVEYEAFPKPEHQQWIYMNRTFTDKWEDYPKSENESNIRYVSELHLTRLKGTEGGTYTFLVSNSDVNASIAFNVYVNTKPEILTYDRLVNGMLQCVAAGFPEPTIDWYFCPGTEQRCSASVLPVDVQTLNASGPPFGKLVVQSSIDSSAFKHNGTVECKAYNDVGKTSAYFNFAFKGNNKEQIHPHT
Experimental: as §1, §2, §3

[4] = biological target: T3, Human CD117 (c-kit), cell-surface expressed (human, UniProt P10721 26-976); assay: flow cytometry on TF-1 cells, IgG1 format, anti-human IgG Fab-AF488, total binding
T3 construct: also called hCD117; SCFR
Experimental: (§4) After a one hour incubation on ice, cells were washed once prior to fixation.
(§5) Mean fluorescence intensities (MFI) were obtained using Flowjo v10 and analysed using GraphPad Prism. Total binding curves for TF-1 cells and specific binding curves for HEK293FS expressing CD117 (generated by subtracting non-specific binding to parental cells) were plotted. EC50 values for each anti-CD117-IgG1 antibody tested was determined using a non-linear regression model.

[5] = biological target: T3, Human CD117 (c-kit), cell-surface …; assay: flow cytometry on HEK293FS cells expressing human CD117, IgG1 format, signal of parental cells subtracted
Experimental: as §4, §5

[6] = biological target: T4, Cynomolgus monkey CD117, expressed on HEK293FS cells (cynomolgus monkey, UniProt P10721 26-976 (human entry)); assay: flow cytometry on HEK293FS cells expressing cynomolgus CD117, IgG1 format, signal of parental cells subtracted
T4 construct: The construct transfected is not further described; also called cyno CD117
T4 chain: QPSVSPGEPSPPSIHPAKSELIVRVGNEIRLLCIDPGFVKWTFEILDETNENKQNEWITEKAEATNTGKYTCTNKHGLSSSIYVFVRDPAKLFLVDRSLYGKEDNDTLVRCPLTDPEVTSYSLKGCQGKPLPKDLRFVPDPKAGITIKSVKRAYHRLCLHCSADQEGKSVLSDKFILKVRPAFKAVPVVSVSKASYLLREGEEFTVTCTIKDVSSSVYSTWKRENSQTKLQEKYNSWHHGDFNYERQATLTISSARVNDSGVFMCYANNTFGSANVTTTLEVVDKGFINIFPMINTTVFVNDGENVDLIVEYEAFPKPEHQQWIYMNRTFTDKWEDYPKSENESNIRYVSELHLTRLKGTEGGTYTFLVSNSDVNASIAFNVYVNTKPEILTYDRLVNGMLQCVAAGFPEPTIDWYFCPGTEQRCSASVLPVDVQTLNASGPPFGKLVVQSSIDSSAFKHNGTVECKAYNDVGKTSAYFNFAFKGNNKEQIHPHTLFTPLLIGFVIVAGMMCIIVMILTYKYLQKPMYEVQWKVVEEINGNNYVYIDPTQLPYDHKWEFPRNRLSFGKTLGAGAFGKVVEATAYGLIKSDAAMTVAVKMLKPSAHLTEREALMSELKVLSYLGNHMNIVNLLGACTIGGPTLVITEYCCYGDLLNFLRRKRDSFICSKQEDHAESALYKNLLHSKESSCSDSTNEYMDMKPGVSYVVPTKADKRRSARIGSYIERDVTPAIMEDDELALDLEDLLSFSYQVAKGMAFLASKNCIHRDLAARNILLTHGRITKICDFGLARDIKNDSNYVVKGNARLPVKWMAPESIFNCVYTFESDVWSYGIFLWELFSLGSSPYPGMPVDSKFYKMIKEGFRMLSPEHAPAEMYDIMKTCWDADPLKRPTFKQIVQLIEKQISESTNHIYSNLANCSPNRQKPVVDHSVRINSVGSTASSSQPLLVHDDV
Experimental: as §4, §5

[7] = biological target: T1, Full length human CD117, soluble …; assay: SPR Biacore 4000, captured antibody, soluble CD117 analyte
Experimental: as §1, §2, §3

[8] = biological target: T2, Cyno CD117, soluble (cynoCD117 1-520); assay: as above
Experimental: as §1, §2, §3

[9] = biological target: T5, Murine CD117, soluble (MuCD117 1-527) (mouse, UniProt P05532 25-527); assay: SPR, captured antibody, soluble CD117 analyte
T5 construct: Residues as printed
T5 sequence: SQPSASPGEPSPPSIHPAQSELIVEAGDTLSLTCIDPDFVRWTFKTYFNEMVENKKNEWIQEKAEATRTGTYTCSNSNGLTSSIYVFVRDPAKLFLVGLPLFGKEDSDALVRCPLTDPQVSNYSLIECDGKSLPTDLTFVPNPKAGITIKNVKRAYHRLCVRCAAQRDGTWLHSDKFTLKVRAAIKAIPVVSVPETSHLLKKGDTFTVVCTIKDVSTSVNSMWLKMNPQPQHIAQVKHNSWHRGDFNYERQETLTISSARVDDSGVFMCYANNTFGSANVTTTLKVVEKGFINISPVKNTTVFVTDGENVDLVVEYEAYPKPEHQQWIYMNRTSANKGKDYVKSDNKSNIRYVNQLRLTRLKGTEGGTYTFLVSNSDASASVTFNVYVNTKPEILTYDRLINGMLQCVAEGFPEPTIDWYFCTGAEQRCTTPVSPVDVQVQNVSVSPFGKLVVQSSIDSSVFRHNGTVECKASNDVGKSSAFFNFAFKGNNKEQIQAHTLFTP
Experimental: as §1, §2, §3

[10] = biological target: T4, Cynomolgus monkey CD117, expressed on …; assay: flow cytometry on HEK293FS cells expressing cynomolgus CD117, IgG1 format, signal of parental cells subtracted [F]
Experimental: as §4, §5

[11] = biological target: T5, Murine CD117, soluble (MuCD117 1-527); assay: SPR Biacore 4000, captured antibody, soluble CD117 analyte
Experimental: as §1, §2, §3

[12] = biological target: T6, Mouse CD117, expressed on HEK293FS cells (mouse, UniProt P05532 25-979); assay: flow cytometry on HEK293FS cells expressing mouse CD117, IgG1 format, signal of parental cells subtracted
T6 construct: The construct transfected is not further described; also called murine CD117
Experimental: as §4, §5

T1 sequence (P10721 26-524): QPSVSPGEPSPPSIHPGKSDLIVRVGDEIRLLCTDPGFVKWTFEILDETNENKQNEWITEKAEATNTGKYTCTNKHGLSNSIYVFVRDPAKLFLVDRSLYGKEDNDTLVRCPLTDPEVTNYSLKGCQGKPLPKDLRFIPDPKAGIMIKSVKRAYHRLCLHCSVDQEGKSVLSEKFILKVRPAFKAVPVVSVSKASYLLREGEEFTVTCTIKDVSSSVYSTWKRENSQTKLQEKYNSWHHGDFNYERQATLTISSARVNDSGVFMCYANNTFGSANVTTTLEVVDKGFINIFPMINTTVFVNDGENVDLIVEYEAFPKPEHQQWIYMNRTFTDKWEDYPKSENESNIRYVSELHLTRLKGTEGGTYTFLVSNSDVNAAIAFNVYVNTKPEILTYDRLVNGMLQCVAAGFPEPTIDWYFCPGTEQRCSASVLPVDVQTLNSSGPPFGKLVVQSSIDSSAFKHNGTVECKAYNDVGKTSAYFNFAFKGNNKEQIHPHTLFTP
Chain of N-terminal domain of human CD117, soluble (HuCD117 1-308) (P10721 26-308): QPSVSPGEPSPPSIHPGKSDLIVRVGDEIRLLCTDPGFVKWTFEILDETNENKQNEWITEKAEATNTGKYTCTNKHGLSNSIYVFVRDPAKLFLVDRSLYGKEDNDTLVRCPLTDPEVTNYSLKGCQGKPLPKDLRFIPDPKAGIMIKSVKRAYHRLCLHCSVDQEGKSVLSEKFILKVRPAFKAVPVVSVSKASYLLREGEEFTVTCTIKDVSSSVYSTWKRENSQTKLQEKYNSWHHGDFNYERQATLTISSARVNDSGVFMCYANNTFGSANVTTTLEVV

Kd [1]: 14.4 nM
Kd [2]: 32.4 nM
Kd [3]: 34.6 nM
EC50 (read off the curve) [4]: ~0.2 nM
EC50 (read off the curve) [5]: ~0.5 nM
EC50 (read off the curve) [6]: ~0.3 nM
B1: hu4A2 IgG1 (hu4A2-hKG1) (antibody)
heavy: not shown
light: EIVLTQSPGTLSLSPGKRATLSCRASQSVSNSYLAWYQQKPGQPPKLLIYWASTRESGVPDRFSGSGSGTDFTLTISSLQAEDVAVYYCQQYYSTPLTFGGGTKVEIKRTVAAPSVFIFPPSDEQLKSGTASVVCLLNNFYPREAKVQWKVDNALQSGNSQESVTEQDSKDSTYSLSSTLTLSKADYEKHKVYACEVTHQGLSSPVTKSFNRGEC
notes: Human IgG1, kappa; also called hu4Aa

fold gain in affinity (IgA2 backbone vs IgG1 or IgG4) [7]: ~2 fold
fold gain in affinity (IgA2 backbone vs IgG1 or IgG4) [8]: ~10 fold
Kd [1]: 8.61 nM
Kd [2]: 18.6 nM
Kd [3]: 3 nM
B2: hu4A2 IgA2 (hu4A2-hKhA2 (P221R)) (antibody)
heavy: EVQLLESGGGLVQPGGSLRLSCAASGFTFSDYGMSWVRQAPGKGLEWVSAIGYGGGGKYYADSVKGRFTISRDNSKNTLYLQMNSLRAEDTAVYYCAKDTWWLAGLFDYWGQGTLVTVSSASPTSPKVFPLSLDSTPQDGNVVVACLVQGFFPQEPLSVTWSESGQNVTARNFPPSQDASGDLYTTSSQLTLPATQCPDGKSVTCHVKHYTNSSQDVTVPCRVPPPPPCCHPRLSLHRPALEDLLLGSEANLTCTLTGLRDASGATFTWTPSSGKSAVQGPPERDLCGCYSVSSVLPGCAQPWNHGETFTCTAAHPELKTPLTANITKSGNTFRPEVHLLPPPSEELALNELVTLTCLARGFSPKDVLVRWLQGSQELPREKYLTWASRQEPSQGTTTFAVTSILRVAAEDWKKGDTFSCMVGHEALPLAFTQKTIDRLAGKPTHVNVSVVMAEVDGTCY
light: B1 light

Kd [1]: 1.07 nM
Kd [2]: 4.2 nM
Kd [3]: 5.7 nM
EC50 (read off the curve) [4]: ~0.04 nM
binding result [10]: binds
B3: hu3B3 IgG1 (hu3B3-hLG1) (antibody)
heavy: not shown
light: SYELTQPPSVSVSPGQTASITCSGDKVGAKYVFWYQQKPGQSPVLVVYQDNKRPSGIPERFSGSNSGNTATLTISGTQAMDEADYYCQAWDSSTALYVFGTGTKVTVLGQPKANPTVTLFPPSSEELQANKATLVCLISDFYPGAVTVAWKADGSPVKAGVETTKPSKQSNNKYAASSYLSLTPEQWKSHRSYSCQVTHEGSTVEKTVAPTECS
notes: Human IgG1, lambda
binding result [9]: no binding (tested: 200 nM (highest CD117 concentration))

Kd [11]: > 1000 nM
Kd [2]: 54.6 nM
Kd [3]: 58.7 nM
EC50 (read off the curve) [12]: ~0.3 nM
B4: hu3B2 IgG1 (hu3B2-hLG1) (antibody)
heavy: not shown
light: SYELTQPPSVSVSPGQTATITCSGDKLGETYVHWYQHQSGQSPILVVYQDFKRPSGIPERFSGSNSGNTATLTISGTQAMDEADYYCQAWDSSTAVFGGGTKLTVLGQPKAAPSVTLFPPSSEELQANKATLVCLISDFYPGAVTVAWKADGSPVKAGVETTKPSKQSNNKYAASSYLSLTPEQWKSHRSYSCQVTHEGSTVEKTVAPTECS
notes: Human IgG1, lambda

Kd [11]: > 1000 nM
Kd [2]: 35.9 nM
Kd [3]: 39.9 nM
B5: hu3B2 IgA2 (hu3B2-hLhA2 (P221R)) (antibody)
heavy: QVQLQESGPGLVKPSETLSLTCTVSGYSISSGYYWGWIRQPPGKGLEWIGSIYHSGSTYYNPSLKSRVTISVDTSKNQFSLKLSSVTAADTAVYYCARVGVRYFDWLLYGAFDIWGQGTMVTVSSASPTSPKVFPLSLDSTPQDGNVVVACLVQGFFPQEPLSVTWSESGQNVTARNFPPSQDASGDLYTTSSQLTLPATQCPDGKSVTCHVKHYTNSSQDVTVPCRVPPPPPCCHPRLSLHRPALEDLLLGSEANLTCTLTGLRDASGATFTWTPSSGKSAVQGPPERDLCGCYSVSSVLPGCAQPWNHGETFTCTAAHPELKTPLTANITKSGNTFRPEVHLLPPPSEELALNELVTLTCLARGFSPKDVLVRWLQGSQELPREKYLTWASRQEPSQGTTTFAVTSILRVAAEDWKKGDTFSCMVGHEALPLAFTQKTIDRLAGKPTHVNVSVVMAEVDGTCY
light: B4 light

Kd [1]: 4.14 nM
Kd [2]: 14.4 nM
Kd [3]: 33.7 nM
EC50 (read off the curve) [4]: ~0.2 nM
EC50 (read off the curve) [5]: ~0.4 nM
EC50 (read off the curve) [6]: ~0.3 nM
B6: hu3C2 IgG1 (hu3C2-hLG1) (antibody)
heavy: not shown
light: SYELTQDPAVSVALGQTVRITCQGDSLRDYYANWFQQKPGQAPLLVIFYDSDRPSGIPERFSGSNSGNTATLTISRVEAGDEADYYCQAWDSSSDHWVFGGGTKLTVLGQPKAAPSVTLFPPSSEELQANKATLVCLISDFYPGAVTVAWKADGSPVKAGVETTKPSKQSNNKYAASSYLSLTPEQWKSHRSYSCQVTHEGSTVEKTVAPTECS
notes: Human IgG1, lambda
binding result [9]: no binding (tested: 200 nM (highest CD117 concentration))
